Measured values as given in publication PMC3978094.
Like-named read-outs stand apart in the source and are kept apart here.

Assays:
[1] = molecular target: T1, GATA3 DBD (N- and C-finger) (human, UniProt P23771-2 260-370); assay: crystal structure
[2] = molecular target: T1, GATA3 DBD (N- and C-finger); assay: SPR
[3] = molecular target: T1, GATA3 DBD (N- and C-finger); assay: crystal structure; remark: listed apart in the source
[4] = molecular target: T1, GATA3 DBD (N- and C-finger); assay: SPR; remark: listed apart in the source

B1: Complex 2/3 palindromic GATA site, 3-bp spacer, 20-mer (dsDNA)
DNA 1: TTCCTAAATCAGAGATAACC
DNA 2: GGTTATCTCTGATTTAGGAA
B1: binds [1].

B2: single GATA site SPR probe (dsDNA)
DNA 1: CTCCCGCTCGCTCAGAGATAAGGCCTTAT
DNA 2: ATAAGGCTTTATCTCTGAGCGAGCGGGAG
With B2 the Kd [2] was ~60 nM.

B3: Complex 1 palindromic GATA site, 1-bp spacer, 20-mer (dsDNA)
DNA 1: AATGTCCATCTGATAAGACG
DNA 2: CGTCTTATCAGATGGACATT
B3: binds [3].

B4: palindromic GATA site SPR probe (dsDNA)
DNA 1: CTCCCGCTCGCTATCAGATAAGGCCTTAT
DNA 2: ATAAGGCCTTATCTGATAGCGAGCGGGAG
B4 showed a Kd [4] of ~6 nM.
